Laboratory results reported in patent publication US20250122266A1, “SMART SINGLE-DOMAIN INTRABODIES WITH PRECISION SWITCHES FOR BIOMEDICAL APPLICATIONS” (THE TEXAS A&M UNIVERSITY SYSTEM, priority 2020, published 2025).
Read-outs that look alike come from different tables or passages of the source.

Columns and labels:
YFP-ORAI1 = YFP-ORAI1 (UniProt Q96D31); test: cell-based or functional assay
NE-tethered mCh-lamin A = NE-tethered mCh-lamin A (UniProt P02545); test: NE/NP ratio of GFP signal in HeLa cells, before and after light
[1] = target: Recombinant SARS-COV-2 Spike RBD (SARS-COV-2) (UniProt P0DTC2)
[2] = target: Recombinant SARS-COV-2 Spike RBD (SARS-COV-2) (UniProt P0DTC2); test: ELISA on immobilised RBD; read as the value without caffeine

Sequence of YFP-ORAI1 (Q96D31 whole entry): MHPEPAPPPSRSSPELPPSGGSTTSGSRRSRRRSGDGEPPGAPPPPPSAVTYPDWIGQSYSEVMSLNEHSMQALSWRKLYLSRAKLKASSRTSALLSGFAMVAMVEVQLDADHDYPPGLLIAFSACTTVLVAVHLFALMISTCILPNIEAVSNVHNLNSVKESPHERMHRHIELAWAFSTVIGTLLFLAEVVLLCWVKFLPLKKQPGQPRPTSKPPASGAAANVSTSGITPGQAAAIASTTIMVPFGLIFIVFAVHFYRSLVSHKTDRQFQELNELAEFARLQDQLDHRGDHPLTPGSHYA
Sequence of mCherry-COSMO-STIM1ct (Q13586 other isoform, or with tags, fused parts or gaps): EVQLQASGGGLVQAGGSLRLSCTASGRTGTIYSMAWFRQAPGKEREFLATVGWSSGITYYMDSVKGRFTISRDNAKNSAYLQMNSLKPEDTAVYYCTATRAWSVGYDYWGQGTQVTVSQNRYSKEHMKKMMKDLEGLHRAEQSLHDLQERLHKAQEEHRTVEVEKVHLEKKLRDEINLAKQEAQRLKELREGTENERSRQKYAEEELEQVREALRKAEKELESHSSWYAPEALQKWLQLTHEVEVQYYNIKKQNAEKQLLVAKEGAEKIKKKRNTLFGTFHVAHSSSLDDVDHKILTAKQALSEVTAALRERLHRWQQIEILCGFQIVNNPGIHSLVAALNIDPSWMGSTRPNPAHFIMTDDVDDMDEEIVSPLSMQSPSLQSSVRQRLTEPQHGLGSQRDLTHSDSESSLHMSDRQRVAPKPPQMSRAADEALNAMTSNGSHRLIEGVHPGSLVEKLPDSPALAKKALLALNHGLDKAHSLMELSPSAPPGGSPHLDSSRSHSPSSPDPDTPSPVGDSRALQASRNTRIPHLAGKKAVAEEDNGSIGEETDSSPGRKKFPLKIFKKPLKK

mCherry-COSMO-STIM1ct (from UniProt Q13586 233-685)
calcium influx (GCaMP6s) after 1 µM caffeine, activation half-life (YFP-ORAI1): 1.63 min

GFP-sunbody variant S0 (LOV2 fused to the N-terminus of LaM8) (VHH)
increase in the NE/NP ratio after photostimulation (NE-tethered mCh-lamin A): 10%

MBP-COSMO-VHH72
apparent binding affinity [1]: 18 nM | apparent binding affinity [2]: 29 nM
